Experimental data from the DeepSol protein solubility set.

Assay: soluble on expression in E. coli; label from the status in PepcDB or PDB records

| Sequence | soluble on expression in E. coli |
| --- | --- |
| MEPWKQCAQWLIHCKVLPTNHRVTWDSAQVFDLAQTLRDGVLLCQLLNNLRAHSINLKEINLRPQMSQFLCLKNIRTFLTACCETFGMRKSELFEAFDLFDVRDFGKVIETLSRLSRTPIALATGIRPFPTEESINDEDIYKGLPDLIDETLVEDEEDLYDCVYGEDEGGEVYEDLMKAEEAHQPKCPENDIRSCCLAEIKQTEEKYTETLESIEKYFMAPLKRFLTAAEFDSVFINIPELVKLHRNLMQEIHDSIVNKNDQNLYQVFINYKERLVIYGQYCSGVESAISSLDYISKSKEDVKLKLEECSKRANNGKFTLRDLLVVPMQRVLKYHLLLQELVKHTTDPTEKANLKLALDAMKDLAQYVNEVKRDNETLREIKQFQLSIENLNQPVLLFGRPQGDGEIRITTLDKHTKQERHIFLFDLAVIVCKRKGDNYEMKEIIDLQQYKIANNPTTDKENKKWSYGFYLIHTQGQNGLEFYCKTKDLKKKWLEQFEMALSNIRPDYADSNFHDFKMHTFTRVTSCKVCQMLLRGTFYQGYLCFKCGARAHKECLGRVDNCGRVNSGEQGTLKLPEKRTNGLRRTPKQVDPGLPKMQVIRNYSGTPPPALHEGPPLQLQAGDTVELLKGDAHSLFWQGRNLASGEVGFFPSDAVKPCPCVPKPVDYSCQPWYAGAMERLQAETELINRVNSTYLVRHRTKESGEYAISIKYNNEAKHIKILTRDGFFHIAENRKFKSLMELVEYYKHHSLKEGFRTLDTTLQFPYKEPEHSAGQRGNRAGNSLLSPKVLGIAIARYDFCARDMRELSLLKGDVVKIYTKMSANGWWRGEVNGRVGWFPSTYVEEDE | soluble |
| MKLEYLIDQAAGQPKKTVAVAVAEDHEVIEAVAKAIKLQLAQFRLYGNQEKIMGMLQEHGLQTSEHVEVIAAMSSAEAAELSVKAVRNGEADVLMKGNIPTANILKAVLNKEWGLRKGSVLSHVAAFEVPNYDRLIFVTDAAMNIAPDVTQKAAIIQNTVEVARAIGIDLPKVAPIAAVEVVNPAMQATIDAAMLTQMNRRGQIKDCIVDGPLALDNAVSQIAAEHKGIVSDVAGKADILLVPTIEAGNVLYKSLVYFADAKVGAMIAGAKAPIVLTSRADSAETKVYSLALAVATASK | soluble |
| MNSVLSNIEKLDTYILRRNEYVAESKDEPNKLNTSRKLEVTTKKNQSNNKKRPPPINKARKSLPSIFRRAEENKDSAQIITPTGSKIIGSPLYKRSKSDSFFDHAFNFDKNLGKGSFGEVVAATCRSTSKKFAIKKIPFSKLSKDQYREAYGHMNIPCHPNIVRFHQAWIDKQILHIQLEMCDKSLAAYCHGIDWLEDKELWNVFLDILQGLGHLHNNFMLHNDIKPDNIFMTKNKVCKLGDFGLISDMRSEPINNSSNKHYQSEGDGKYCSKEAINGTLSIFSDIFSFGISILEVGTNIHLPSYGTGWEPIRKWEIPEEILEPMSDELRELVKQMMDKAPTRRPTCSELMKNHVVKEKLRIRKQEVEHIPSESQFQPISYLTTESPLGSRESSCSSIDFLDHFENAEKKTPFVSKLNFDLEDDEDEYEVFSPPRTPVKKSRYQQTMPEVSPPRKIQKLFQRKNLFDE | not soluble |
| MGSDKIHHHHHHVSPRIVIVGAGPGGMATAIRLAGQGYQVEIFEAVDRPGGRMRGFSLGDYHFDTGPTILQVPRVYDELFSSAGLRFSDYVTLIRLDPNTRIRFWDGEYLDLTSNIAAFKAQLARFDPALPAEFERWYIEHIRKNVVGYEPYLGTPVRSPLVYLKPREIAAALAFRPWESLYDHFKRFFRDERVVYALSYQAKYLGMHPTACSSVFSLVTFLEFADGIWHPRGGFRALAAGLAKAATDLGVVIHYNSPVKQVLVEEGRACGVELVGGERIKADAVVVNADFGHALTHIIPPHARGTYTDQKLNSMEFSCSTFMLYLGVNRRWDHLPHHQLYLSANIRRNDPLWAKSAVLDEDDPSFYVCNPTIVDPTNAPPGHSTLFVLVPVPNLRYPVDWAAVEQRYRDLIIRQMAKLGFEDVERHIVVERRYTAETWRDEHHTYLGAVFNLIHSWSQLGPFRPHIRHNGARNLYWIGGAVHPGSGLMTILEAAKSAVHFIGEDLPLHQTTAVAH | not soluble |
| MGSDKIHHHHHHMSKGRHVCFLTGTLNAMAGAERMTAVIANALAESGHTVSILSLWDKDSCFPLHPAVGHEALFAERPSFKKAYLTTVAGIRRYCRERKVDVLVQVDTMLALLALPATVGLGVQHIAWEHCHFDEDLGRRARRYARRLAARYCKHVVVLTERDQLRWIEALQPRSQVVIIPNPLPFPFPEEPAPRTGKIVLAMGRLVNAKGFDVLIRAWQRVSAEVPDWKLVIHGEGEERPALSALIDELGLQDSVSLPGICRDATEAYREASIFCLSSRYEGFGLVLIEAMAFGLPIVSTNCEAGPRELLATGTVGLTVPVDAPTMLAASILDLIHQPDLALRFAHAERMFAKGYSLQQIGARWSDLTSARHGSMPQYS | not soluble |
